According to paper PMC8421143 (Nucleic Acids Research, 2021):

Target: recombinant full-length human BLM with a C-terminal His6-tag (human, UniProt P54132 1-1417)
Test: co-IP

Sequence of recombinant full-length human BLM with a C-terminal His6-tag (P54132 whole entry): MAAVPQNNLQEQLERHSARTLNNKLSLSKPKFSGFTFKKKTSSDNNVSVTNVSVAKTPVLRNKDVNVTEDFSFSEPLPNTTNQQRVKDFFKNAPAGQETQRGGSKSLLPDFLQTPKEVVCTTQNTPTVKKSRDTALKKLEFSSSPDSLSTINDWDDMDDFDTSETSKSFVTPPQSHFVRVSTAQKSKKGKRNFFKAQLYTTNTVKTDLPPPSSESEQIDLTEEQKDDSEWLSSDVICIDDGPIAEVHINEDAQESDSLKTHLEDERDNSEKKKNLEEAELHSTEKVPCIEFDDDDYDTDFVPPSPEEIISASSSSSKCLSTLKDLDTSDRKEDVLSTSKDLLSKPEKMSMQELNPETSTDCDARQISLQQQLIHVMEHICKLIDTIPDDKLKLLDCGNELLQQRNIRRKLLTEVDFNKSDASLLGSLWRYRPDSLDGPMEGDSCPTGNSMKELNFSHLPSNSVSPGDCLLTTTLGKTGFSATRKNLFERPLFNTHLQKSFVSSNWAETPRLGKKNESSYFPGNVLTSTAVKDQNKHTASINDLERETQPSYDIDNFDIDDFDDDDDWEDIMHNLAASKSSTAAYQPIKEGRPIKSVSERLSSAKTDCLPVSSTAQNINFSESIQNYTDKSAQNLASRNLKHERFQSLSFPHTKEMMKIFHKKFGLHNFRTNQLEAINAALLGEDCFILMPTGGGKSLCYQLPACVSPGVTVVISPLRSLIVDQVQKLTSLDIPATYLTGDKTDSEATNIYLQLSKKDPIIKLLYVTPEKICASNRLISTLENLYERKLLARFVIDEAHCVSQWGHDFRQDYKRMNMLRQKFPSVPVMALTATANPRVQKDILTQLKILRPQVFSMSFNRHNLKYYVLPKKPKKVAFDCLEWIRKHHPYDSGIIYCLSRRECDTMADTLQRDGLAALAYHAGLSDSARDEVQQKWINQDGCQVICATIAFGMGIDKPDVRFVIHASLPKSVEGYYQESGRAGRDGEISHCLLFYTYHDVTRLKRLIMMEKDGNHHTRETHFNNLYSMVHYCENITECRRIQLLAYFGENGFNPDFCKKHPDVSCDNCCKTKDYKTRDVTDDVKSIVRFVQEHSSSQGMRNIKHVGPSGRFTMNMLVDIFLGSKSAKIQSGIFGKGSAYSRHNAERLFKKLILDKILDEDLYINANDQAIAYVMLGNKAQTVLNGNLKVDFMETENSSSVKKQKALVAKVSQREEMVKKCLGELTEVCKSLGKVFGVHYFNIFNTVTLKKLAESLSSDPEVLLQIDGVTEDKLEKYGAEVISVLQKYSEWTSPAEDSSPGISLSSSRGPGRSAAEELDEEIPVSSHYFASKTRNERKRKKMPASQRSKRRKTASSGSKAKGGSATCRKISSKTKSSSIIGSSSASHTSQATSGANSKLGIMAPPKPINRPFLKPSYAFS

binding result: binds
B1: recombinant full length human Mcm6 from wheat germ (natural protein)
chain: MDLAAAAEPGAGSQHLEVRDEVAEKCQKLFLDFLEEFQSSDGEIKYLQLAEELIRPERNTLVVSFVDLEQFNQQLSTTIQEEFYRVYPYLCRALKTFVKDRKEIPLAKDFYVAFQDLPTRHKIRELTSSRIGLLTRISGQVVRTHPVHPELVSGTFLCLDCQTVIRDVEQQFKYTQPNICRNPVCANRRRFLLDTNKSRFVDFQKVRIQETQAELPRGSIPRSLEVILRAEAVESAQAGDKCDFTGTLIVVPDVSKLSTPGARAETNSRVSGVDGYETEGIRGLRALGVRDLSYRLVFLACCVAPTNPRFGGKELRDEEQTAESIKNQMTVKEWEKVFEMSQDKNLYHNLCTSLFPTIHGNDEVKRGVLLMLFGGVPKTTGEGTSLRGDINVCIVGDPSTAKSQFLKHVEEFSPRAVYTSGKASSAAGLTAAVVRDEESHEFVIEAGALMLADNGVCCIDEFDKMDVRDQVAIHEAMEQQTISITKAGVKATLNARTSILAAANPISGHYDRSKSLKQNINLSAPIMSRFDLFFILVDECNEVTDYAIARRIVDLHSRIEESIDRVYSLDDIRRYLLFARQFKPKISKESEDFIVEQYKHLRQRDGSGVTKSSWRITVRQLESMIRLSEAMARMHCCDEVQPKHVKEAFRLLNKSIIRVETPDVNLDQEEEIQMEVDEGAGGINGHADSPAPVNGINGYNEDINQESAPKASLRLGFSEYCRISNLIVLHLRKVEEEEDESALKRSELVNWYLKEIESEIDSEEELINKKRIIEKVIHRLTHYDHVLIELTQAGLKGSTEGSESYEEDPYLVVNPNYLLED
